In publication PMC3470408:

Tested on: CC(C)=CCOP(=O)(O)OP(=O)(O)O
Test: purified protein
Conditions: pH 7.0; 37.0 °C

Rv0562 (Mycobacterium tuberculosis H37Rv)
Km: 5 ± 2 µM
